Results on 3 proteins are retold here after paper PMC8834691, “Deletion of Specific Conserved Motifs from the N-Terminal Domain of αB-Crystallin Results in the Activation of Chaperone Functions” (International Journal of Molecular Sciences, 2022).

The series deals with the molecule itself. Briefly: SEC-MALS; 0.1 mg protein in 0.25 mL phosphate buffer, incubated at 37 °C for 1 h; TSK G5000PWXL column, 0.75 mL/min; subunits per oligomer = oligomeric mass divided by subunit mass.

B1: αB-crystallin with residues 21–28 and 54–61 deleted (natural protein, human, UniProt P02511 1-175, looked up)
chain: MDIAIHHPWIRRPFFPFHSPGEHLLESDLFPTSTSLSPFYLRPPSDTGLSEMRLEKDRFSVNLDVKHFSPEELKVKVLGDVIEVHGKHEERQDEHGFISREFHRKYRIPADVDPLTITSSLSSDGVLTVNGPRKQVSGPERTIPITREEKPAVTAAPKK
notes: Gene from GenScript in pET23a(+), without the C-terminal His-tag; the in-frame T7 tag was removed by PCR; Small homo-oligomer, average molar mass 85 kDa, on average close to four subunits; also called αBΔ21–28, Δ54–61; αB∆21–28, ∆54–61; source: E. coli BL21(DE3) pLysS, purified (45% ammonium sulfate precipitation, Superdex G200 gel filtration)
For B1, the “stoichiometry N” value was roughly 4 subunits per oligomer.

B2: wild-type αB-crystallin (natural protein, human, UniProt P02511 1-175, looked up)
chain: MDIAIHHPWIRRPFFPFHSPSRLFDQFFGEHLLESDLFPTSTSLSPFYLRPPSFLRAPSWFDTGLSEMRLEKDRFSVNLDVKHFSPEELKVKVLGDVIEVHGKHEERQDEHGFISREFHRKYRIPADVDPLTITSSLSSDGVLTVNGPRKQVSGPERTIPITREEKPAVTAAPKK
notes: αB-crystallin, human, wild type, recombinant; called full-length αB-WT; Polydisperse homo-oligomer (average molar mass 558 kDa by MALS); also called αB-WT; WT-αB; source: E. coli BL21(DE3) pLysS, purified (45% ammonium sulfate precipitation, Superdex G200 gel filtration)
Take B2: the binding result is listed as “binds”.

B3: αB-crystallin with residues 54–61 deleted (natural protein, human, UniProt P02511 1-175, looked up)
chain: MDIAIHHPWIRRPFFPFHSPSRLFDQFFGEHLLESDLFPTSTSLSPFYLRPPSDTGLSEMRLEKDRFSVNLDVKHFSPEELKVKVLGDVIEVHGKHEERQDEHGFISREFHRKYRIPADVDPLTITSSLSSDGVLTVNGPRKQVSGPERTIPITREEKPAVTAAPKK
notes: Polydisperse homo-oligomer (average molar mass 262 kDa by MALS); also called αBΔ54–61; αB∆54–61; source: E. coli BL21(DE3) pLysS, purified (45% ammonium sulfate precipitation, Superdex G200 gel filtration)
As to B3, the binding result is “binds”.

A word on the stoichiometry N: it is the number of molecules, sites or subunits per partner or assembly.
